Data from article PMC3254608, “Inscuteable Regulates the Pins-Mud Spindle Orientation Pathway” (PLoS ONE, 2012).

T1: Pins TPR (residues 42-398), soluble (Drosophila, UniProt Q9VB22 42-398)
T1 construct: Partner of Inscuteable (Pins), Drosophila, residues 42-398, the TPR domain; it may be a hexahistidine fusion (pBH vector); also called Pins TPRs; source: E. coli BL21(DE3), purified
T1 sequence (looked up): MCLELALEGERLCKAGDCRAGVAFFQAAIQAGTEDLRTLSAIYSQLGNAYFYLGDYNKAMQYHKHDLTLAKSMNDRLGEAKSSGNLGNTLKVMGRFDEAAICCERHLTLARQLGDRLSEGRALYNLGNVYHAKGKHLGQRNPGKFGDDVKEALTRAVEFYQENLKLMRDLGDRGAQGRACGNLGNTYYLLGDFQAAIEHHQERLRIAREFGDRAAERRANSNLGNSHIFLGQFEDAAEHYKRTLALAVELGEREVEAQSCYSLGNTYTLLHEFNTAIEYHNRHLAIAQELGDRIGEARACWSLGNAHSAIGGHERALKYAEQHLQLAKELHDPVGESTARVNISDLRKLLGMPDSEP


Assays:
[1] = biological target: TMR-Mud peptide (Mud residues 1955-1970 with an NH2-terminal cysteine, labelled with tetramethylrhodamine) (Drosophila); experiment: fluorescence polarisation; fluorescence anisotropy, direct titration: constant 100 nM TMR-Mud, increasing ligand, binding buffer, 20°C, fit to 1:1 binding
[2] = biological target: T1, Pins TPR (residues 42-398), soluble; experiment: fluorescence polarisation; fluorescence anisotropy, competition: Inscuteable added to a pre-formed complex of 100 nM TMR-Mud and 1 uM Pins, binding buffer, 20°C; conditions: both partners purified

Row | Kd [1] [µM] | Kd [2] [µM] | Binder
1 | 1.1 |  | Pins TPR (residues 42-398), soluble (domain or fragment) MCLELALEGERLCKAGDCRAGVAFFQAAIQAGTEDLRTLSAIYSQLGNAYFYLGDYNKAMQYHKHDLTLAKSMNDRLGEAKSSGNLGNTLKVMGRFDEAAICCERHLTLARQLGDRLSEGRALYNLGNVYHAKGKHLGQRNPGKFGDDVKEALTRAVEFYQENLKLMRDLGDRGAQGRACGNLGNTYYLLGDFQAAIEHHQERLRIAREFGDRAAERRANSNLGNSHIFLGQFEDAAEHYKRTLALAVELGEREVEAQSCYSLGNTYTLLHEFNTAIEYHNRHLAIAQELGDRIGEARACWSLGNAHSAIGGHERALKYAEQHLQLAKELHDPVGESTARVNISDLRKLLGMPDSEP
2 |  | 5 | MBP-fusion of the central Ankyrin-repeat containing domain of Inscuteable (residues 252-600) (domain or fragment, Drosophila, UniProt Q24367 252-600, looked up, Inscuteable (Insc), Drosophila, residues 252-600, including the central Ankyrin-repeat containing region; pMAL-c2 based vector; also called MBP-Insc; source: E. coli BL21(DE3), purified (amylose resin)) APPPYNNETVTFGATEQDESLQQQPSPLRVRSLRFTASTSTPKSGSKIAKRGKKHPEPVASWMSEQRWAGEPEVMCTLQHKSIAQEAYKNYTITTSAVCKLVRQLQQQALSLQVHFERSERVLSGLQASSLPEALAGATQLLSHLDDFTATLERRGVFFNDAKIERRRYEQHLEQIRTVSKDTRYSLERQHYINLESLLDDVQLLKRHTLITLRLIFERLVRVLVISIEQSQCDLLLRANINMVATLMNIDYDGFRSLSDAFVQNEAVRTLLVVVLDHKQSSVRALALRALATLCCAPQAINQLGSCGGIEIVRDILQVESAGERGAIERREAVSLLAQITAAWHGSEH
